From patent US10323078B2, “Isolated peptides and fragments thereof from fibrinogen for use as drugs, particularly in skin inflammatory diseases” (Universite Paris Descartes, priority 2015, dated 2019)

B1: MKRMVSWSFHKLKTMKHLLLLLLCVFLVKSQGVNDNEEGFFSARGHRPLDKKREEAPSLRPAPPPISGGGYRARPAKAAATQKKVERKAPDAGGCLHADPDLGVLC (protein)
chain: MKRMVSWSFHKLKTMKHLLLLLLCVFLVKSQGVNDNEEGFFSARGHRPLDKKREEAPSLRPAPPPISGGGRARPAKAAATQKKVERKAPDAGGCLHADPDLGVLCMKRMVSWSFHKLKTMKHLLLLLLCVFLVKSQGVNDNEEGFFSARGHRPLDKKREEAPSLRPAPPPISGGGYRARPAKAAATQKKVERKAPDAGGCLHADPDLGVLC
modifications: GST fusion; fragment Fg1
notes: fragment of Bß chain of human fibrinogen having 106 amino acids; recombinant GST-fused peptide expressed in E. coli

Assays:
[1] = system: Pfg; assay: Binding of biotinylated Pfg to immobilized fibrinogen (polystyrene plate); set-up: species or system Propionibacterium acnes; details: various quantities of fibrinogen immobilized; biotinylated Pfg 0.1 μg/ml, 2 h at 23° C.
Description: FIG. 5: Binding of P. acnes surface proteins to fibrinogen. (A) Various quantities of human fibrinogen (hFg) and bovine fibrinogen (bFg) were immobilized onto a 96-well polystyrene plate at 4° C. for 18 h and incubated with biotinylated Pfg at 0.1 μg/ml for 2 h at 23° C. Bovine serum albumin (BSA) was used as negative control. Bound material was detected by using the HRP-streptavidin conjugate. Peroxidase activity was measured by using the ABTS substrate at 405 nm. Proteins (10 μg per lane) were separated by 10% SDS-PAGE and detected by (B) Commassie blue staining, and transferred to nitrocellulose membrane and incubated with (C) HRP-streptavidine alone, and (D) biotinylated Pfg (0.1 μg/ml). Lanes 1: molecular weight standards. Lane 2: BSA. […]
To characterize the interaction between P. acnes and ligands, we used biotinylated molecules in quantitative and qualitative assays. […] For quantitative analysis, unlabeled protein were diluted into 50 mM carbonate-bicarbonate, pH 9.6 buffer to yield a protein concentration ranging from 0.01 to 50 μg/ml, and then immobilized to 96-well polystyrene plates at 4° C. overnight. […] After washing, bound peroxidase was detected using the chromogenic peroxidase substrate ABTS. […] Binding activity was detected by incubating the membranes with 20 ml of PBT containing biotinylated proteins (0.1 μg/ml) for 2 h at room temperature followed by three washes with PBT. […]

[2] = system: HDF cells; assay: TNF-α production by P. acnes-stimulated HDF (ELISA); type: cell-based, human; details: 0.87 to 7 μM
Description: For experiences of stimulation with P. acnes, cells were incubated with the P. acnes suspension adjusted at the appropriate concentration, pre-treated for 1 h at 37° C. or not with fibrinogen recombinant peptides Fg1 and Fg2 at the concentrations 0.87, 1.75, 3.5 or 7 μM for the desired period of time at 37° C. in 5% CO2.
Human IL-1ß, IL-8, IL-12, hBD-2, and TNF-α protein concentration was measured in the supernatants of stimulated cells using various ELISA Set kits (Ready-Set-Go kit from eBioscience for acne experiments, and for psoriasis experiments the Duo set IL-8 kit from R&D Systems and the BD-2 Human Development (hBD-2) from Peprotech) according to the manufacturer's instructions. We used serial dilutions of recombinant human IL-1ß, IL-8, IL-12 and TNF-α for standard curve. The optical density was determined at 450 nm at a wavelength correction of 540 nm.
To assess the efficacy of Fg1 recombinant peptide, the production of O2^∘− and H2O2 by HaCaT cells NHDK, THP-1, MRC5 and HDF stimulated by pretreated P. acnes strains 6919, RON and PIE was measured. The amount of ROS produced was compared to that produced by the stimulated cells with untreated bacteria. Production baseline was obtained by measuring ROS on unstimulated cells. The production of IL-1ß, IL-8, IL-12 and TNF-α was also measured in all conditions cited above. The measurement of the production of ROS is performed by spectrofluorimetry in the presence of specific fluorochromes directly on the monolayer cell. Measurement of cytokine production was performed in parallel on the cell culture supernatant.
Two sets of experiments were implemented: 1) The cells were stimulated (18 h at 37° C.) by P. acnes strains previously pretreated with Fg1 and Fg2 peptides at the final concentrations ranging from 0.87 to 7 μM for 1 h at 37° C.; and 2) The cells were pretreated first with Fg1 and Fg2 peptides at the final concentrations ranging from 0.87 to 7 μM for 24 h at 37° C. and stimulated (18 h at 37° C.) by P. acnes strains.

Row | Molecule | Binding of biotinylated Pfg to immobilized fibrinogen [1] | Inhibition of Interleukine TNF alpha (TNF-α) production ([2]; P. acnes 6919, set I, bacteria first pretreated) | Inhibition of Interleukine TNF alpha (TNF-α) production ([2]; P. acnes 6919, set II, cells first pretreated) | Inhibition of Interleukine TNF alpha (TNF-α) production ([2]; P. acnes PIE, set I, bacteria first pretreated) | Inhibition of Interleukine TNF alpha (TNF-α) production ([2]; P. acnes PIE, set II, cells first pretreated) | Inhibition of Interleukine TNF alpha (TNF-α) production ([2]; P. acnes RON, set I, bacteria first pretreated) | Inhibition of Interleukine TNF alpha (TNF-α) production ([2]; P. acnes RON, set II, cells first pretreated)
1 | human fibrinogen: purified commercial human fibrinogen (Sigma), glycoprotein hexamer of Aα, Bß and γ chains | dose-dependent with a higher affinity for hFg |  |  |  |  |  | 
2 | B1 |  | pos | pos | pos | pos | pos | pos
